Ends that are not written are not given here. * marks the point of attachment. Biotin = O=C1N[C@H]2[C@H](CS[C@H]2CCCCC(=O)*)N1
Assays:
Assay in all cases: peptide or protein array; E. coli proteome chip: purified His-tagged proteins printed in duplicate on Fullmoon slides, blocked with 1% BSA; 10 nM N-terminal biotinylated LfcinB with 1% BSA, room temperature, 1 h; detected with DyLight 649-labeled streptavidin, ratio to DyLight 549-labeled anti-His antibody; ProCAT normalisation, local cut-off; triplicate chips
Conditions in all cases: both partners purified
YihI = molecular target: T1, YihI (E. coli K-12, UniProt P0A8H6 1-169)
T1 construct: YihI, E. coli K-12
T1 sequence (looked up): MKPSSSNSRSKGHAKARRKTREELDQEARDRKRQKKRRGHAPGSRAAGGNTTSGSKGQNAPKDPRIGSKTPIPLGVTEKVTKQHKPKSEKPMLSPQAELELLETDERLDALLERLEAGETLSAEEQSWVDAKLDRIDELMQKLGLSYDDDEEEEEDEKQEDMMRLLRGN

ThiF = molecular target: T2, ThiF (E. coli K-12, UniProt P30138 1-251)
T2 construct: ThiF, E. coli K-12
T2 sequence (looked up): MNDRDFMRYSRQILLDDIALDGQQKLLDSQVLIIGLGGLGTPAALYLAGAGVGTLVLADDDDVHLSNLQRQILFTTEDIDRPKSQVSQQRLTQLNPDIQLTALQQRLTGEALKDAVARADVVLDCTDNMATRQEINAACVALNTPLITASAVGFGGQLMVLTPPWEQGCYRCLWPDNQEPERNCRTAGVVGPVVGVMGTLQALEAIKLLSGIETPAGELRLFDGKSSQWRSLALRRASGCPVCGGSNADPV

MalP = MalP (E. coli K-12, UniProt P00490 1-797)
YhiW = molecular target: T3, YhiW (E. coli K-12, UniProt P63201 1-242)
T3 construct: YhiW, E. coli K-12
T3 sequence (looked up): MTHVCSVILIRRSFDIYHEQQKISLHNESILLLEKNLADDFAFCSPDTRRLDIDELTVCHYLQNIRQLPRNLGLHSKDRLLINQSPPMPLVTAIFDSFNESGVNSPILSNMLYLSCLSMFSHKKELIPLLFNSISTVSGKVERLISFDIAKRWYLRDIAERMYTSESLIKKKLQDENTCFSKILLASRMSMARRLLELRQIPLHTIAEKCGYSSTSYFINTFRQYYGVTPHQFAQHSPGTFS

DinG = molecular target: T4, DinG (E. coli K-12, UniProt P27296 1-716)
T4 construct: DinG, E. coli K-12
T4 sequence (looked up): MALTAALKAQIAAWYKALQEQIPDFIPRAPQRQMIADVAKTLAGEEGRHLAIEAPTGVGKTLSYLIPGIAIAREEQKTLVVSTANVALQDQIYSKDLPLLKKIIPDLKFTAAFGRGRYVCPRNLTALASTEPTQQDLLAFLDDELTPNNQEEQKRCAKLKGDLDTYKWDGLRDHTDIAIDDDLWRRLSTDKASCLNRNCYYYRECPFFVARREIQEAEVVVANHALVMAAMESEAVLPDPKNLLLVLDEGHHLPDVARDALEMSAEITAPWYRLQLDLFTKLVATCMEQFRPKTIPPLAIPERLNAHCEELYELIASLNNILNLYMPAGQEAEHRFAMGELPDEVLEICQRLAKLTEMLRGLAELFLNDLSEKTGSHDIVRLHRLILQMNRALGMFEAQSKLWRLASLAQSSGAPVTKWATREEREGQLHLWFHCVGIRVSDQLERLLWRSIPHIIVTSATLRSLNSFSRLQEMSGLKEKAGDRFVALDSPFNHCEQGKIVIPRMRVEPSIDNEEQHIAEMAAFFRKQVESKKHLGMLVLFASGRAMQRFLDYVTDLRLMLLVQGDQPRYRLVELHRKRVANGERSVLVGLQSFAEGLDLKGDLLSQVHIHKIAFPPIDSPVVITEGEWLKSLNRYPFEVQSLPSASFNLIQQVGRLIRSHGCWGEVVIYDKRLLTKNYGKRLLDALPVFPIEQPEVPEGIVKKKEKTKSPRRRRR

YgiG = molecular target: T5, YgiG (E. coli K-12, UniProt P0AC16 1-122)
T5 construct: YgiG, E. coli K-12
T5 sequence (looked up): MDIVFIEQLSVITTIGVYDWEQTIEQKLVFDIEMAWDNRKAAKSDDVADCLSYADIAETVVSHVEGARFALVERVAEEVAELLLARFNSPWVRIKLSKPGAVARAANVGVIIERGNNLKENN

Measured: binding result

B1: N-terminal biotinylated Lactoferricin B (peptide, UniProt P24627 36-60, looked up)
peptide: Biotin-FKCRRWQWRMKKLGAPSITCVRRAF
modifications: ends and bridges not checked
notes: lactoferricin B (LfcinB), cationic antimicrobial peptide of 25 amino acids; also called biotinylated LfcinB; biotin-labeled LfcinB; source: bought: Kelowna Inc
binds: all assays above

— article PMC3229523, “Identification of Lactoferricin B Intracellular Targets Using an Escherichia coli Proteome Chip” (PLoS ONE, 2011)
